Data taken from US20240092919A1 (Ablynx, published 2024).
Substitutions are numbered along the chain they refer to. Where two headings read alike, the source gives them in different places.

Legend:
[1] = biological target: T1, Cynomolgus TCR(AEA41865/AEA41866)-zipper protein (cynomolgus); test: SPR, ProteOn XPR36; TCR-zipper protein immobilised by amine coupling
T1 construct: also called cyTCR-zipper; cyTCR(AEA41865)-zipper
T1 TCR alpha: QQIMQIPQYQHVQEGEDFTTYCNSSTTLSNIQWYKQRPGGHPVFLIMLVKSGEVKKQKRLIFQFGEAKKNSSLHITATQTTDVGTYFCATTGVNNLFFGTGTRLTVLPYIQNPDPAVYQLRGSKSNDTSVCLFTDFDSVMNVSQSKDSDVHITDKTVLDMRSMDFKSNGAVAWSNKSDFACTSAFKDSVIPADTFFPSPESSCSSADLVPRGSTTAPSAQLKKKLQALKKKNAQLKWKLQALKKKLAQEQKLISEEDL
T1 TCR beta: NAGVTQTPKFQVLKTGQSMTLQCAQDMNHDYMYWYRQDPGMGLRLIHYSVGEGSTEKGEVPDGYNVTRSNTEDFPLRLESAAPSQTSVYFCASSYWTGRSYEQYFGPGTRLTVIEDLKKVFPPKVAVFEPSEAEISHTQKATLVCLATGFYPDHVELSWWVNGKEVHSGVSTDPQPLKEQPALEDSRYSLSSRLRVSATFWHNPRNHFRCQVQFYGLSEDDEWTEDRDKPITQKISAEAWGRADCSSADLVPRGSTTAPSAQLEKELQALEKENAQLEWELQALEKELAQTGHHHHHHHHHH
Protocol: Purified ISVDs were injected for 2 minutes (flow rate 45 μL/min) at different concentrations (between 0.2 nM and 200 nM) and dissociation was followed for 900 s. Regeneration was performed by injecting 3 M MgCl₂ for 3 minutes (flow rate 90 μL/min). […] Processed sensorgrams were analyzed based on the 1:1 interaction model (Langmuir binding model) using ProteOn Manager 3.1.0 (Version 3.1.0.6) software.

[2] = biological target: T2, cynomolgus TCR on primary cynomolgus T cells (cynomolgus); test: flow cytometry competition on primary cynomolgus T cells; competitor Flag-tagged T017000623 at EC30
T2 construct: whole, on cells; also called cyno TCRαβ
Protocol: (§1) T cells (human T cells obtained as described in Example 3 and cyno T cells purchased from LPT laboratory, Germany) were thawed and counted on the day of the assay and diluted to a concentration of 1E+06 cells/mL, before adding 75 μL to the wells of a V-bottom 96-well plate (Greiner, cat no 651180). Cells were washed once with cold FACS buffer, before adding 25 μL Nb and 25 μL competitor to the wells. […] Cells were resuspended and plates were incubated at 4° C. for 90 minutes, after which plates were washed twice in cold FACS buffer. […] Plates were washed twice in cold FACS buffer. […] Plates were washed twice in cold FACS buffer. Cells were resuspended in 55 μL 1/1000 diluted Propidium Iodide (Sigma-Aldrich, cat no P4170) in FACS buffer before acquiring data on the MACSQuant X (Miltenyi biotec).

[3] = biological target: T3, human TCR on primary human T cells (human, UniProt P01848 1-140; P01850 1-176); test: flow cytometry competition on primary human T cells; competitor Flag-tagged T017000624 at EC30
T3 construct: whole, on cells; also called human TCRαβ
T3 TCR alpha (looked up): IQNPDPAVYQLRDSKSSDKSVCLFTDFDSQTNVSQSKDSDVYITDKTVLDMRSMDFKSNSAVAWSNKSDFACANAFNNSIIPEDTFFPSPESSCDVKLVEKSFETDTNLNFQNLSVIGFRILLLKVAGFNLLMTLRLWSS
T3 TCR beta (looked up): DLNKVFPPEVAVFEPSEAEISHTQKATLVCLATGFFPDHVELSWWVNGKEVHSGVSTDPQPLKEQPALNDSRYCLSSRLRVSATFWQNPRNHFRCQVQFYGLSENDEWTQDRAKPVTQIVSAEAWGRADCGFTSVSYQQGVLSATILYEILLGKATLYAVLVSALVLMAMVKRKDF
Protocol: as §1

[4] = biological target: T4, human T cell receptor on human primary T cells (human, UniProt P01848 1-140; P01850 1-176); test: flow cytometry, human primary T cells
T4 construct: whole, on cells
Protocol: Dose-dependent binding of the purified monovalent ISVD variants to CHO-K1 huTCR(2XN9)/huCD3 overexpressing cells or human primary T cells was evaluated by flow cytometry. […] Next, cells were washed 3 times with FACS buffer and incubated with 1 μg/ml THE™ His Tag Antibody, mAb, Mouse (Genscript, A00186) and washed again. […] Subsequently, cells were resuspended in FACS buffer supplemented with 5 nM TO-PRO®-3 Iodide to distinguish live from dead cells, which are removed during the gating procedure. Cells were analyzed using a FACS Array flow cytometer (BD Biosciences) and Flowing Software. First a P1 population which represented more than 80% of the total cell population was selected based on FSC-SSC distribution. In this gate, 10000 cells were counted during acquisition. From this population the TO-PRO®-3+ cells (dead cells) were excluded and the mean fluorescence intensity (MFI) PE value was calculated.
T4 TCR alpha (looked up): T3 TCR alpha (looked up)
T4 TCR beta (looked up): T3 TCR beta (looked up)

[5] = biological target: T5, Human T cell receptor on human primary T cells (human, UniProt P01848 1-140; P01850 1-176); test: flow cytometry competition with Flag3-His6-tagged anti-TCR ISVD ligand, human primary T cells
T5 construct: whole, on cells
Protocol: (§2) Subsequently, cells were resuspended in FACS buffer supplemented with 1 μg/ml Propidium Iodide (PI, Sigma, P4170) to distinguish live from dead cells. Cells were analyzed using a FACS Array flow cytometer (BD Biosciences) using Flowing Software. First a P1 population which represented more than 80% of the total cell population was selected based on FSC-SSC distribution. In this gate, 10000 cells were counted during acquisition. From this population the Propidium iodide or TO-PRO©-3 Iodide positive cells (dead cells) were excluded and the median or Mean PE value was calculated.
T5 TCR alpha (looked up): T3 TCR alpha (looked up)
T5 TCR beta (looked up): T3 TCR beta (looked up)

[6] = biological target: T6, Cynomolgus T cell receptor on the HSC-F cynomolgus T cell line (cynomolgus monkey); test: flow cytometry competition with Flag3-His6-tagged anti-TCR ISVD ligand, HSC-F cells
T6 construct: whole, on cells; also called HSC-F cells; HSC-F cyno T cell line (NIBIO JCRB1164)
Protocol: as §2

[7] = biological target: T7, Cynomolgus TCR(AEA41865/AEA41866)-zipper protein (cynomolgus monkey); test: SPR off-rate, ProteOn XPR36, immobilised TCR-zipper
T7 construct: also called cyTCR-zipper protein; cynoTCR zipper
T7 TCR alpha: T1 TCR alpha
T7 TCR beta: T1 TCR beta

[8] = biological target: T5, Human T cell receptor on human primary …; test: flow cytometry, human primary T cells
Protocol: (§3) The ISVD variants were characterized for binding to CHO-K1 huTCR(2XN9)/huCD3 or to human and cynomolgus primary T cells. […] Next, cells were washed 3 times with FACS buffer and incubated with 1 μg/ml ANTI-FLAG® M2 Ab (Sigma, F1804) and washed again. […] Subsequently, cells were resuspended in FACS buffer supplemented with 5 nM TO-PRO®-3 Iodide to distinguish live from dead cells, which are removed during the gating procedure. Cells were analyzed using a FACS Array flow cytometer (BD Biosciences) and Flowing Software. First a P1 population which represented more than 80% of the total cell population was selected based on FSC-SSC distribution. In this gate, 10000 cells were counted during acquisition. From this population the TO-PRO®-3+cells (dead cells) were excluded and the mean fluorescence intensity (MFI) PE value was calculated.

[9] = biological target: T5, Human T cell receptor on human primary …; test: flow cytometry, human primary T cells
Protocol: as §3

[10] = biological target: T7, Cynomolgus …; test: SPR, ProteOn XPR36, 25 C, immobilised TCR-zipper
Excerpt: (§4) HuTCR-zipper or cyTCR-zipper protein was immobilized on a GLC sensor chip (between 100-200 RU) via amine coupling chemistry, using EDC/NHS for activation of the carboxyl groups on the chip surface (running buffer: HBS-EP+, pH7.4). […] Processed sensorgrams were fitted with the Langmuir model (1:1 interaction) using ProteOn Manager 3.1.0 (Version 3.1.0.6) software.

[11] = biological target: T7, Cynomolgus …; test: higher koff divided by lower koff, humanTCR zipper vs cynoTCR zipper (SPR)
[12] = biological target: T8, Cynomolgus TCR(AEA41865/AEA41866)-zipper protein (cynomolgus monkey); test: SPR (ProteOn XPR36), KD on cyTCR-zipper against KD on huTCR-zipper
T8 construct: also called cyTCR-zipper; cynoTCR-zipper protein
Excerpt: as §4
T8 TCR alpha: T1 TCR alpha
T8 TCR beta: T1 TCR beta

cynomolgus CD33 on cells = biological target: T9, cynomolgus CD33 on cells (cynomolgus monkey); test: flow cytometry on transfected cells, cynomolgus CD33 against human CD33
T9 construct: whole, on cells; also called CHO cy CD33; CHO Flp-In cynoCD33

[13] = biological target: T10, cynomolgus CD123 on cells (cynomolgus monkey); test: flow cytometry on transfected cells, cynomolgus CD123 against human CD123
T10 construct: whole, on cells; also called HEK293 cyno CD123; cynomolgus CD123 transfected cell lines

[14] = biological target: T11, Cynomolgus TCR/cynomolgus CD3 complex on CHO-K1 cells (rhesus monkey (constant domains …)); test: flow cytometry on CHO-K1 cyTCR/cyCD3 cells; Flag3-His6-tagged ISVD, anti-FLAG M2 + PE goat anti-mouse; MFI (mean PE) [panel CHO-K1 cyTCR/cyCD3]
T11 construct: also called CHO-K1 cyTCR/cyCD3
Protocol: Next, cells were washed 3 times with FACS buffer and incubated with 1 μg/ml ANTI-FLAG® M2 Ab (Sigma, F1804) and washed again. […] Subsequently, cells were resuspended in FACS buffer supplemented with 5 nM TO-PRO®-3 Iodide to distinguish live from dead cells, which are removed during the gating procedure. Cells were analyzed using a FACS Array flow cytometer (BD Biosciences) and Flowing Software. First a P1 population which represented more than 80% of the total cell population was selected based on FSC-SSC distribution. In this gate, 10000 cells were counted during acquisition. From this population the TO-PRO®-3+ cells (dead cells) were excluded and the mean fluorescence intensity (MFI) PE value was calculated.
T11 TCR alpha: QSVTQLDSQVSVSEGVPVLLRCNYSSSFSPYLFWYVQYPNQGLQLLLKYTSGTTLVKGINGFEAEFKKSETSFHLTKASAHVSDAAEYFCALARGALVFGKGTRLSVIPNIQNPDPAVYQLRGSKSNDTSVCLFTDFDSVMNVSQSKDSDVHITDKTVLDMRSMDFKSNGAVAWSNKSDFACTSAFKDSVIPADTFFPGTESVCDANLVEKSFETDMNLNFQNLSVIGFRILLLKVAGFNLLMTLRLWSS
T11 TCR beta: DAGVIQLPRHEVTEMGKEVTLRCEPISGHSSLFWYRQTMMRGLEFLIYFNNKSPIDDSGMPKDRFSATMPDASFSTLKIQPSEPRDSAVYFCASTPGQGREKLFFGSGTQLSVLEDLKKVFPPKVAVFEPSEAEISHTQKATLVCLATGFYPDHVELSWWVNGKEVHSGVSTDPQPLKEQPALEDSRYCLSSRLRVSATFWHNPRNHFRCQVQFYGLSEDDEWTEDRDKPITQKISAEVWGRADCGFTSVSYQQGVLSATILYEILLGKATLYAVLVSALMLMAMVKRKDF
T11 chain 3: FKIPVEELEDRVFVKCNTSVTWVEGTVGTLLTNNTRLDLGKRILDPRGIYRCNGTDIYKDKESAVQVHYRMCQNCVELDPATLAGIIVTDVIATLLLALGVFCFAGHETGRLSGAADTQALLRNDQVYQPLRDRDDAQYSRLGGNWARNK
T11 chain 4: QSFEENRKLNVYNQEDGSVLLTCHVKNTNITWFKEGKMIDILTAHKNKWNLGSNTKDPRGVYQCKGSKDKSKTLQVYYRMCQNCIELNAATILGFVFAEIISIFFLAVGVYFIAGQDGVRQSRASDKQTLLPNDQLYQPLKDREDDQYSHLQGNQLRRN
T11 chain 5: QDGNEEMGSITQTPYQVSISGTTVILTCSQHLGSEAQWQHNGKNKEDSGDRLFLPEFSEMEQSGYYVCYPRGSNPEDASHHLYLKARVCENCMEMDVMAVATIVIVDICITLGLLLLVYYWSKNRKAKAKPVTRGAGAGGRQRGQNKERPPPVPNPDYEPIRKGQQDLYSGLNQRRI
T11 chain 6: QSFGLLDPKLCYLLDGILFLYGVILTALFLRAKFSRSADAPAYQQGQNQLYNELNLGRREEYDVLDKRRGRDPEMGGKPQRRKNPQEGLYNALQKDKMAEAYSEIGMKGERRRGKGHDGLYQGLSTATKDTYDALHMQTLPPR

[15] = biological target: T5, Human T cell receptor on human primary …; test: flow cytometry on human primary T cells; Flag3-His6-tagged ISVD, anti-FLAG M2 + PE goat anti-mouse; MFI (mean PE)
Protocol: as §3

B1: T017000698 (bispecific antibody)
chain: DVQLVESGGGVVQPGGSLRLSCVASGYVHKINFYGWYRQAPGKEREKVAHISIGDQTDYADSAKGRFTISRDESKNTVYLQMNSLRPEDTAAYYCRALSRIWPYDYWGQGTLVTVSSGGGGSGGGSEVQLVESGGGVVQPGGSLRLSCAASGFTFRSFGMSWVRQAPGKGPEWVSSISGSGSDTLYADSVKGRFTISRDNSKNTLYLQMNSLRPEDTALYYCTIGGSLSRSSQGTLVTVSSA
notes: also called T017000680-9GS-ALB23002-A; TCE01-9GS-ALB23002-A
[1]
  Kd: 11 nM
[2]
  IC50: 250 nM
[3]
  IC50: 190 nM

B2: T0170056G05 (VHH)
VHH: EVQLVESGGGLVQPGGSLRLSCVASGDVHKINFLGWYRQAPGKEREKVAHISIGDQTDYADSAKGRFTISRDESKNMVYLQMNSLKPEDTAVYFCRAFSRIYPYDYWGQGTLVTVSS
notes: also called T01700056G05; parental ISVD
[4]
  EC50: 110 nM

B3: T017000679 (VHH)
VHH: B2 VHH with E1D, L11V, D27Y, L34Y, M77T, K86R, V92L, F94Y, F98L, Y102W
[5]
  IC50: 100 nM
[6]
  IC50: 620 nM

B4: T017000345 (VHH, not shown: small tags and cut ends)
VHH: B2 VHH with L11V, K86R, V92L, F94Y
[4]
  EC50: 160 nM

B5: T017000685 (VHH, not shown: small tags and cut ends)
VHH: B2 VHH with L11V, D27E, K30Q, L34Y, M77T, K86R, V92L, F94Y, F98L, Y102W
[7]
  koff: 0.00399 s⁻¹

B6: T017000624 (VHH, not shown: small tags and cut ends)
VHH: B2 VHH with L11V, D27Y, L34Y, M77T, K86R, V92L, F94Y, F98L, Y102W
[8]
  EC50: 45 nM
[9]
  EC50: 46 nM
[10]
  Kd: 6.3 nM
[11]
  Gap in off-rate human vs cyno: 4.5 fold

B7: T017000687 (VHH, not shown: small tags and cut ends)
VHH: B2 VHH with L11V, D27S, K30Q, L34Y, M77T, K86R, V92L, F94Y, F98L, Y102W
[7]
  koff: 0.00427 s⁻¹

B8: T017000681 (VHH)
VHH: B2 VHH with E1D, L11V, D27Y, L34Y, M77T, K86R, V92T, F94Y, F98L, Y102W
[5]
  IC50: 92 nM
[6]
  IC50: 730 nM

B9: T017000624 (VHH, not shown: small tags and cut ends)
VHH: B2 VHH with L11V, D27Y, L34Y, M77T, K86R, V92L, F94Y, F98L, Y102W
[12]
  difference in human-cynomolgus cross-reactivity based on KD: 2.6 fold

B10: T017000141 (VHH, not shown: small tags and cut ends)
VHH: B2 VHH with L11V, K86R, V92L
[9]
  EC50: 100 nM
[10]
  Kd: 220 nM
[11]
  Gap in off-rate human vs cyno: 12.4 fold

B11: monovalent CD33 building block (VHH)
VHH: EVQLVESGGGVVQPGGSLRLSCAASGGVFRLNSMGWFRQAPGKQRELVAIITSDGDTNYADSVKGRFTISRDQAKNTVYLQMNSLRPEDTALYYCQITYSTSSYSFPINTWGQGTLVTVSS
Cynomolgus CD33 on cells
  difference in EC50 between human and cynomolgus monkey: < 2 fold

B12: monovalent CD123 building block (VHH)
VHH: EVQLVESGGGVVQPGGSLRLSCAASGVIFSGNVMGWYRRQAPGKEREWVAAIAEGGSILYRDSVKGRFTISRDNAKNTVYLQMNSLRPEDTALYYCNSHPPVLPYWGQGTLVTVSS
[13]
  difference in EC50 between human and cynomolgus monkey: 3 fold

B13: cAbLys3 (VHH, not shown: small tags and cut ends)
VHH: DVQLQASGGGSVQAGGSLRLSCAASGYTIGPYCMGWFRQAPGKEREGVAAINMGGGITYYADSVKGRFTISQDNAKNTVYLLMNSLEPEDTAIYYCAADSTIYASYYECGHGLSTGGYGYDSWGQGTQVTVSS
notes: also called irrelevant anti-egg lysozyme ISVD
[14]
  binding result: no binding (tested: 3e-6 M)
[15]
  binding result: no binding (tested: 3e-6 M)
